Data set [1] is described as follows: folding stability dG unfold from chymotrypsin proteolysis; higher = more stable. The method in brief: (§1)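 How resistant each design was to proteolysis was captured as K50, inferred by Bayesian fitting of sequencing counts. Unfolding free energy was then derived relative to a sequence-predicted unfolded-state K50 and a shared folded-state K50, per protease or combined. Digestion used trypsin and chymotrypsin at 11 threefold-diluted concentrations plus a no-protease condition, on mini-proteins under 80 residues without cysteine in a PA-tagged cDNA display construct. Designs were kept only when AlphaFold2 dimer inter-PAE was above 15.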

The nature of data set [2]: folding stability dG unfold from trypsin proteolysis; higher = more stable. The procedure, abridged:
as §1

Data set [3] is described as follows: folding stability dG unfold (combined trypsin and chymotrypsin); higher = more stable. The method in brief:
as §1

± gives the half width of the 95% confidence interval.

With “SAGGSAGGSAGNWKIKNIEPVRLPNNVHIMKFQIPGRSLIFVFDPKNGQKRWIPLKDIKPSAGGSAGGSAGG [r17_286_TrROS]”, the results for the “folding stability dG unfold” value in data set [1], in data set [2] and in data set [3] were -0.0752 ± 0.14 kcal/mol, -0.301 ± 0.25 kcal/mol and -0.0705 ± 0.09 kcal/mol, respectively.
For “SAGGSAGGSAGPEITVVKAPDEGYYYLIKLKVTYTLRDPETTAPLAEFEVEYYFLDRGSASAGGSAGGSAGG [r17_124_TrMRF]” the same measures were 4.91 ± 0.12 kcal/mol, 3.3 ± 0.28 kcal/mol and 4.58 ± 0.47 kcal/mol.
For “SAGGSAGGSAGPENKNYMVMEMTIDIWIPLPPNAKVVFDPDEGKWKYVPIKIPIRIVMPWSAGGSAGGSAGG [r11_257_TrROS]” the same measures were 3.43 ± 0.12 kcal/mol, 2.91 ± 0.14 kcal/mol and 3.2 ± 0.15 kcal/mol.
As to “SAGGSAGGSAGPEVIEIKNPKTGKTYRIVRNKDGKLLIYNEATGKVAVFKDGKIELVPAPSAGGSAGGSAGG [r17_476_TrROS_Hall]”, the “folding stability dG unfold” value is 0.825 ± 0.21 kcal/mol in data set [1], 1.14 ± 0.07 kcal/mol in data set [2] and 1.05 ± 0.16 kcal/mol in data set [3].
As to “SAGGSAGGSAGPEVRIELERDEDGRLRLRATFKLEDGKEVRVEVEFDLKTKKLTVKIEPVSAGGSAGGSAGG [r11_107_TrROS_Hall]”, the “folding stability dG unfold” value in data set [1] stood at 4.8 ± 0.41 kcal/mol; in data set [2] it was 3.83 ± 0.19 kcal/mol; in data set [3] it was 4.63 ± 0.39 kcal/mol.
On the same counts, the results for “SAGGSAGGSAGPEWYVVMRVENPGTGKEVHFIGPWDDFKEKLPPSNVKMEWHLIPADALKSAGGSAGGSAGG [r11_334_TrROS]” are 0.666 ± 0.06 kcal/mol, 0.0887 ± 0.066 kcal/mol and 0.494 ± 0.061 kcal/mol.
On the same counts, the results for “SAGGSAGGSAGPFKIEMTFIFKKDNEYYIAKIEIEISPDGYPKMKIEIKKVDINELENYFSAGGSAGGSAGG [r11_690_TrMRF]” are 4.39 ± 0.14 kcal/mol, 2.52 ± 0.15 kcal/mol and 4.04 ± 0.4 kcal/mol.
For “SAGGSAGGSAGPFTIMVIERVPPDDPEYDKLHKDNGMPPENMIRIKIFRFKSPEQLKELFSAGGSAGGSAGG [r11_83_TrROS]” the same measures were 2.12 ± 0.06 kcal/mol, 1.82 ± 0.038 kcal/mol and 2.08 ± 0.086 kcal/mol.
Take “SAGGSAGGSAGPGLSITTTITTTTPAKLPNGTAPLRTTTTTIITELKPADPNNPVILANTSAGGSAGGSAGG [r11_236_JUSTAS]”: the “folding stability dG unfold” value in data set [1] is 0.278 ± 0.069 kcal/mol; in data set [2] it was 1.05 ± 0.053 kcal/mol; in data set [3], 0.746 ± 0.048 kcal/mol.
For “SAGGSAGGSAGPKIKIKKFPDFLIAEIEFPDGKKATAIFDPKTGKIIVFVGDKPIEIDIGSAGGSAGGSAGG [r11_846_TrMRF]” the same measures were 3.49 ± 0.09 kcal/mol, 2.16 ± 0.059 kcal/mol and 3.1 ± 0.07 kcal/mol.
On the same counts, the results for “SAGGSAGGSAGPKPLATITLPYPDNASVTITVTPNGVLIDPDPNITNPEVEKAVADALTDSAGGSAGGSAGG [r11_372_TrMRF]” are 1.07 ± 0.12 kcal/mol, 1.55 ± 0.11 kcal/mol and 1.41 ± 0.099 kcal/mol.
On the same counts, the results for “SAGGSAGGSAGPLKIKKLELRKLPDGFVEMTAEFEGPENYTVRLIVRKDDPNKLVLEVFPSAGGSAGGSAGG [r11_618_TrROS_Hall]” are 2.98 ± 0.057 kcal/mol, 2.07 ± 0.095 kcal/mol and 2.69 ± 0.16 kcal/mol.
On to “SAGGSAGGSAGPLTLTATFLSDYNYAVTVTLTFEVDENGNLSVSGEVEIRPVPPLGPGNASAGGSAGGSAGG [r11_728_TrMRF]”, for which the entries for the “folding stability dG unfold” value in data set [1], in data set [2] and in data set [3] were 4.05 ± 0.11 kcal/mol, 2.42 ± 0.1 kcal/mol and 3.72 ± 0.15 kcal/mol, respectively.
On to “SAGGSAGGSAGPMEVERETIMIPIDPDKGYYIMIDVWRYKNPGGPPFPAPSISIMDLDDLSAGGSAGGSAGG [r11_51_TrROS]”, for which the “folding stability dG unfold” value worked out at 3.11 ± 0.045 kcal/mol in data set [1], 1.78 ± 0.072 kcal/mol in data set [2] and 2.68 ± 0.11 kcal/mol in data set [3].
As for “SAGGSAGGSAGPNIYVSIKWKHNNGPVTHQIPIPPNDPPEILDEMSKQPGFKVTDIEVMPSAGGSAGGSAGG [r11_692_TrROS]”, the figures for the “folding stability dG unfold” value in data set [1], in data set [2] and in data set [3] were -0.0146 ± 0.3 kcal/mol, -0.836 ± 0.35 kcal/mol and -0.213 ± 0.25 kcal/mol, respectively.
In the case of “SAGGSAGGSAGPNNMYPYEITIEVRDDGKPVKIKIEMYMSPNGEPMPPEQIKNFAKELAKSAGGSAGGSAGG [r17_373_TrROS]”, the “folding stability dG unfold” value was determined as 0.444 ± 0.17 kcal/mol in data set [1], 0.382 ± 0.24 kcal/mol in data set [2] and 0.398 ± 0.23 kcal/mol in data set [3].
On the same counts, the results for “SAGGSAGGSAGPNWKKYTFTIFFPGYPFRVEIERPKDGPNAPLAIKIEDPNGKPMETFPISAGGSAGGSAGG [r11_223_TrROS]” are 2.61 ± 0.082 kcal/mol, 2.71 ± 0.11 kcal/mol and 2.67 ± 0.12 kcal/mol.
As for “SAGGSAGGSAGPPDQNFLIKIKWQENGKKREHTIPIPAENLDEVLDELSPWPGLEVEIIPSAGGSAGGSAGG [r17_50_TrROS]”, the “folding stability dG unfold” value in data set [1] is -0.295 ± 0.11 kcal/mol; in data set [2], -0.408 ± 0.085 kcal/mol; in data set [3], -0.376 ± 0.19 kcal/mol.

These data come from the supplement of paper PMC12764529.
